# Results published in PMC4263767, “IL-28B is a Key Regulator of B- and T-Cell Vaccine Responses against Influenza” (PLoS Pathogens, 2014).
# Experiments:
# [1] = system: PBMCs from transplant recipients; type: cell-based, human; settings: IL-28B 100 ng/mL, 2 h before 5-day H1N1; 38 transplant recipients; p = 0.004
# [2] = system: PBMCs from healthy volunteers; type: cell-based, human
# [3] = system: T-cells, monocytes and macrophages; settings: ref [42], [43]; cited from earlier work
# Source text: The IFN-λ family (Interleukin-28A, -28B, -29, and IFN-λ4) is a recently described class of IFNs with antiviral properties similar to IFN-α and -β [14]–[17]. IFN-λ is known to induce phosphorylation of STAT-1 and -2 via binding to its receptor, which is a heterodimer consisting of the IL-28 receptor alpha subunit (IL28RA) and IL-10 receptor beta subunit (IL10RB). […] Furthermore, IFN-λs induced the development of T-regu ... || IL-28B (IFN-λ3) belongs to the family of IFN-lambdas and shares antiviral properties similar to IFN-α via induction of interferon stimulated genes (ISGs) such as MX1 or OAS1 [41]. […] IL-12 is a key cytokine for the induction of Th1 cells and cytotoxic lymphocytes, [43]. SNPs in the IL-28B gene (minor-allele genotypes) have been associated with reduced IL-28B expression, [29]–[33], which could impact adaptive immune functions during vaccination. One limitation of our study is that we d ...
# [4] = system: PBMCs from transplant recipients; assay: Cytokine release by H1N1-stimulated transplant recipient PBMCs, overnight (luminex); type: cell-based, human
# [5] = IL-28B 100 ng/mL, overnight H1N1, p=0.04
# [6] = IL-28B 100 ng/mL, overnight H1N1, p=0.39
# [7] = IL-28B 100 ng/mL, overnight H1N1, p=1.00
# [8] = IL-28B 100 ng/mL, overnight H1N1, transplant PBMCs, median (IQR)
molecule,measurement,setting,value
"IL-28B: recombinant IL-28B, a member of the interferon (IFN)-λ family (protein, left off: His tag, end not stated, kept, recombinant IL-28B, a member of the interferon (IFN)-λ family) VPVARLRGALPDARGCHIAQFKSLSPQELQAFKRAKDALEESLLLKDCKCRSRLFPRTWDLRQLQVRERPVALEAELALTLKVLEATADTDPALGDVLDQPLHTLHHILSQLRACIQPQPTAGPRTRGRLHHWLHRLQEAPKKESPGCLEASVTFNLFRLLTRDLNCVASGDLCV",H1N1-induced IgG production with IL-28B (in words),[1],significantly decreased
same,reduction of IgG-production,"[2]; abstract, in vitro",> 70%
same,lower H1N1-stimulated IgG antibody production,"[2]; highest dose of IL-28B (100 ng/mL), 5-day H1N1, n = 8",70%
same,IL-12 production in monocytes and macrophages,[3],induce IL-12 production in monocytes and macrophages
same,"H1N1-stimulated Th1-cytokine expression (IFN-γ, IL6)","[4]; IL-28B 100 ng/mL, 2 h before overnight H1N1, n = 36",significant increase
same,"IFN-α, ratio IL-28B/no IL-28B","[4]; IL-28B 100 ng/mL, overnight H1N1, p=0.001",2.9
same,"IFN-γ, ratio IL-28B/no IL-28B",[4]; [5],2.1
same,"MIP-1α, ratio IL-28B/no IL-28B",[4]; [5],1.8
same,"sCD40-L, ratio IL-28B/no IL-28B",[4]; [5],1.0
same,"IL-6, ratio IL-28B/no IL-28B","[4]; IL-28B 100 ng/mL, overnight H1N1, p=0.05",2.4
same,"IP-10, ratio IL-28B/no IL-28B","[4]; IL-28B 100 ng/mL, overnight H1N1, p=0.14",1.0
same,"MCP-3, ratio IL-28B/no IL-28B","[4]; IL-28B 100 ng/mL, overnight H1N1, p=0.33",1.2
same,"Fractalkine, ratio IL-28B/no IL-28B",[4]; [6],5.0
same,"TNF-α, ratio IL-28B/no IL-28B",[4]; [6],1.9
same,"IL-1β, ratio IL-28B/no IL-28B","[4]; IL-28B 100 ng/mL, overnight H1N1, p=0.44",1.0
same,"MCP-1, ratio IL-28B/no IL-28B","[4]; IL-28B 100 ng/mL, overnight H1N1, p=0.61",1.0
same,"IL-2, ratio IL-28B/no IL-28B","[4]; IL-28B 100 ng/mL, overnight H1N1, p=0.86",1.1
same,"IL-4, ratio IL-28B/no IL-28B","[4]; IL-28B 100 ng/mL, overnight H1N1, p=0.92",1.0
same,"GRO, ratio IL-28B/no IL-28B",[4]; [7],1.0
same,"IL-5, ratio IL-28B/no IL-28B",[4]; [7],1.0
same,"IL-9, ratio IL-28B/no IL-28B",[4]; [7],1.0
same,"IL-13, ratio IL-28B/no IL-28B",[4]; [7],1.0
same,Fractalkine,[4]; [8],16.1 (3.2-60.2) pg/mL
same,GRO,[4]; [8],3.2 (3.2-3.2) pg/mL
same,IFN-α,[4]; [8],1290.8 (502.4-1969.9) pg/mL
same,IFN-γ,[4]; [8],48.0 (13.9-133.3) pg/mL
same,IL-1β,[4]; [8],0.6 (0.6-4.0) pg/mL
same,IL-2,[4]; [8],61.5 (6.0-168.9) pg/mL
same,IL-4,[4]; [8],0.6 (0.6-1.5) pg/mL
same,IL-5,[4]; [8],0.6 (0.6-0.6) pg/mL
same,IL-6,[4]; [8],104.0 (15.0-156.6) pg/mL
same,IL-9,[4]; [8],0.6 (0.6-0.6) pg/mL
same,IL-13,[4]; [8],0.6 (0.6-0.9) pg/mL
same,IP-10,[4]; [8],8336.4 (7362.5-9289.1) pg/mL
same,MCP-1,[4]; [8],0.5 (0.5-827.4) pg/mL
same,MCP-3,[4]; [8],760.9 (398.3-2500.5) pg/mL
same,MIP-1α,[4]; [8],321.4 (173.7-485.3) pg/mL
same,TNF-α,[4]; [8],23.2 (0.7-44.8) pg/mL
same,sCD40-L,[4]; [8],0.6 (0.6-77.7) pg/mL
same,"Th1-cytokines (in words, abstract)",[4]; in vitro,increased Th1-cytokines (e.g. IFN-γ)
